Results as given in publication PMC7728815, “Substrate-binding destabilizes the hydrophobic cluster to relieve the autoinhibition of bacterial ubiquitin ligase IpaH9.8” (Communications Biology, 2020).

T1: human guanylate-binding protein 1 (hGBP1), full-length (human, UniProt P32455 1-592, NT-647-NHS label (in the MST assay only))
T1 construct: full-length in the crystallized complex; in MST it was fluorescently labelled (NT-647-NHS) and no nucleotide is mentioned
T1 sequence (looked up): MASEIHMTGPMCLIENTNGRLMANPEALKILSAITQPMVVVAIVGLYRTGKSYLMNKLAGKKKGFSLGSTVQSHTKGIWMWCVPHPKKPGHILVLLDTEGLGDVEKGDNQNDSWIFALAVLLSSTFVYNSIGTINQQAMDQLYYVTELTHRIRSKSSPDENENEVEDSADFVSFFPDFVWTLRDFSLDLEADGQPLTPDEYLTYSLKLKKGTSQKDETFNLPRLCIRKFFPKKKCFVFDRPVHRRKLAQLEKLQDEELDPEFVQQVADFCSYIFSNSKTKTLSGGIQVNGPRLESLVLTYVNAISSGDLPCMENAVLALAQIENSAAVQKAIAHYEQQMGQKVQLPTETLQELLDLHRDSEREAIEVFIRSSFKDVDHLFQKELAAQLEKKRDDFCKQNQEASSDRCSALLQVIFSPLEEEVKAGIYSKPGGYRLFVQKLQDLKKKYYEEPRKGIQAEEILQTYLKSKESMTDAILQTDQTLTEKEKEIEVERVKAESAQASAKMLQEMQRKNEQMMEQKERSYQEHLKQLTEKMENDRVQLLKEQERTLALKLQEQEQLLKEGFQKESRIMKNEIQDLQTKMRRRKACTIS

B1: IpaH9.8^LRR (22–244), LRR domain of IpaH9.8 (domain or fragment)
chain: TYADYFSAWDKWEKQALPGEERDEAVSRLKECLINNSDELRLDRLNLSSLPDNLPAQITLLNVSYNQLTNLPELPVTLKKLYSASNKLSELPVLPPALESLQVQHNELENLPALPDSLLTMNISYNEIVSLPSLPQALKNLRATRNFLTELPAFSEGNNPVVREYFFDRNQISHIPESILNLRNECSIHISDNPLSSHALPALQRLTSSPDYHGPRIYFSMSD
notes: Leucine-rich repeat domain of IpaH9.8 of S. flexneri, residues 22–244 as crystallized (the plasmid section says 21–244); Plasmids section gives 21–244, crystallization section 22–244; also called IpaH9.8 LRR domain; IpaH9.8^LRR-Sub
B2: IpaH9.8 (wild type, Shigella flexneri) (enzyme)
chain: MLPINNNFSLPQNSFYNTISGTYADYFSAWDKWEKQALPGEERDEAVSRLKECLINNSDELRLDRLNLSSLPDNLPAQITLLNVSYNQLTNLPELPVTLKKLYSASNKLSELPVLPPALESLQVQHNELENLPALPDSLLTMNISYNEIVSLPSLPQALKNLRATRNFLTELPAFSEGNNPVVREYFFDRNQISHIPESILNLRNECSIHISDNPLSSHALPALQRLTSSPDYHGPRIYFSMSDGQQNTLHRPLADAVTAWFPENKQSDVSQIWHAFEHEEHANTFSAFLDRLSDTVSARNTSGFREQVAAWLEKLSASAELRQQSFAVAADATESCEDRVALTWNNLRKTLLVHQASEGLFDNDTGALLSLGREMFRLEILEDIARDKVRTLHFVDEIEVYLAFQTMLAEKLQLSTAVKEMRFYGVSGVTANDLRTAEAMVRSREENEFTDWFSLWGPWHAVLKRTEADRWAQAEEQKYEMLENEYPQRVADRLKASGLSGDADAEREAGAQVMRETEQQIYRQLTDEVLALRLPENGSQLHHS
notes: IpaH9.8, bacterial E3 ubiquitin ligase of S. flexneri; the wild-type gene was synthesised and cloned as 'IpaH9.8' into pET28M; No tag cleavage is described although the vector has a TEV site; also called IpaH9.8-WT; wild-type IpaH9.8
B3: IpaH9.8-C337A (enzyme)
chain: MLPINNNFSLPQNSFYNTISGTYADYFSAWDKWEKQALPGEERDEAVSRLKECLINNSDELRLDRLNLSSLPDNLPAQITLLNVSYNQLTNLPELPVTLKKLYSASNKLSELPVLPPALESLQVQHNELENLPALPDSLLTMNISYNEIVSLPSLPQALKNLRATRNFLTELPAFSEGNNPVVREYFFDRNQISHIPESILNLRNECSIHISDNPLSSHALPALQRLTSSPDYHGPRIYFSMSDGQQNTLHRPLADAVTAWFPENKQSDVSQIWHAFEHEEHANTFSAFLDRLSDTVSARNTSGFREQVAAWLEKLSASAELRQQSFAVAADATESAEDRVALTWNNLRKTLLVHQASEGLFDNDTGALLSLGREMFRLEILEDIARDKVRTLHFVDEIEVYLAFQTMLAEKLQLSTAVKEMRFYGVSGVTANDLRTAEAMVRSREENEFTDWFSLWGPWHAVLKRTEADRWAQAEEQKYEMLENEYPQRVADRLKASGLSGDADAEREAGAQVMRETEQQIYRQLTDEVLALRLPENGSQLHHS
notes: IpaH9.8 of S. flexneri with the active cysteine changed (C337A); mutants made by PCR-based mutagenesis; likely the same as m1
B4: IpaH9.8-R166A (enzyme)
chain: MLPINNNFSLPQNSFYNTISGTYADYFSAWDKWEKQALPGEERDEAVSRLKECLINNSDELRLDRLNLSSLPDNLPAQITLLNVSYNQLTNLPELPVTLKKLYSASNKLSELPVLPPALESLQVQHNELENLPALPDSLLTMNISYNEIVSLPSLPQALKNLRATANFLTELPAFSEGNNPVVREYFFDRNQISHIPESILNLRNECSIHISDNPLSSHALPALQRLTSSPDYHGPRIYFSMSDGQQNTLHRPLADAVTAWFPENKQSDVSQIWHAFEHEEHANTFSAFLDRLSDTVSARNTSGFREQVAAWLEKLSASAELRQQSFAVAADATESCEDRVALTWNNLRKTLLVHQASEGLFDNDTGALLSLGREMFRLEILEDIARDKVRTLHFVDEIEVYLAFQTMLAEKLQLSTAVKEMRFYGVSGVTANDLRTAEAMVRSREENEFTDWFSLWGPWHAVLKRTEADRWAQAEEQKYEMLENEYPQRVADRLKASGLSGDADAEREAGAQVMRETEQQIYRQLTDEVLALRLPENGSQLHHS
notes: IpaH9.8 of S. flexneri with Arg166 changed to alanine; mutants made by PCR-based mutagenesis; likely the same as m1; also called IpaH9.8 mutant R166A

Columns and labels:
[1] = target: T1, human guanylate-binding protein 1 …; assay: crystal structure; 0.3 mM IpaH9.8^LRR (22–244) mixed with 0.3 mM full-length hGBP1 and 5 mM GDP; 3.5 M NaCl, 0.1 M sodium citrate pH 6.5, 20 °C; space group P6122, one heterodimer in the asymmetric unit; settings: both partners purified
[2] = target: T1, human guanylate-binding protein 1 …; assay: MST; 75 nM NT-647-NHS-labeled hGBP1 in PBS pH 7.4; IpaH9.8 titrated in, 30 min at room temperature; Monolith NT.Automated; settings: both partners purified
[3] = target: the molecule itself; assay: native gel or EMSA; Native-PAGE of IpaH9.8 and IpaH9.8-C337A under reducing and non-reducing conditions

Binder | binding result [1] | binding result [2] | binding result [3]
B1 | binds |  | 
B2 |  | binds | binds
B3 |  |  | binds
B4 |  | binds | 
